One protein from PMC2752026 (The EMBO Journal, 2009) can be followed below.

The series concerns the molecule itself. Kind of series: crystal structure.

As usually defined, the stoichiometry N is the number of molecules, sites or subunits per partner or assembly.

B1: major vault protein MVP, as in intact vault particles purified from rat liver (natural protein, rat (endogenous in rat liver), UniProt Q62667 1-861, looked up)
chain: MATEEAIIRIPPYHYIHVLDQNSNVSRVEVGPKTYIRQDNERVLFAPVRMVTVPPRHYCIVANPVSRDTQSSVLFDITGQVRLRHADQEIRLAQDPFPLYPGEVLEKDITPLQVVLPNTALHLKALLDFEDKNGDKVMAGDEWLFEGPGTYIPQKEVEVVEIIQATVIKQNQALRLRARKECFDREGKGRVTGEEWLVRSVGAYLPAVFEEVLDLVDAVILTEKTALHLRALQNFRDLRGVLHRTGEEWLVTVQDTEAHVPDVYEEVLGVVPITTLGPRHYCVILDPMGPDGKNQLGQKRVVKGEKSFFLQPGERLERGIQDVYVLSEQQGLLLKALQPLEEGESEEKVSHQAGDCWLIRGPLEYVPSAKVEVVEERQAIPLDQNEGIYVQDVKTGKVRAVIGSTYMLTQDEVLWEKELPSGVEELLNLGHDPLADRGQKGTAKPLQPSAPRNKTRVVSYRVPHNAAVQVYDYRAKRARVVFGPELVTLDPEEQFTVLSLSAGRPKRPHARRALCLLLGPDFFTDVITIETADHARLQLQLAYNWHFELKNRNDPAEAAKLFSVPDFVGDACKAIASRVRGAVASVTFDDFHKNSARIIRMAVFGFEMSEDTGPDGTLLPKARDQAVFPQNGLVVSSVDVQSVEPVDQRTRDALQRSVQLAIEITTNSQEAAAKHEAQRLEQEARGRLERQKILDQSEAEKARKELLELEAMSMAVESTGNAKAEAESRAEAARIEGEGSVLQAKLKAQALAIETEAELERVKKVREMELIYARAQLELEVSKAQQLANVEAKKFKEMTEALGPGTIRDLAVAGPEMQVKLLQSLGLKSTLITDGSSPINLFSTAFGLLGLGSDGQPPAQK
For the protein B1, the “stoichiometry N” value came to 78.
